Measured values published in US20130108609A1.

Target: Snapin, endogenous, in LNCaP cells (human) (UniProt O95295)
Experiment: cell-based or functional assay

Chain of UniProt O95295 (O95295 2-136): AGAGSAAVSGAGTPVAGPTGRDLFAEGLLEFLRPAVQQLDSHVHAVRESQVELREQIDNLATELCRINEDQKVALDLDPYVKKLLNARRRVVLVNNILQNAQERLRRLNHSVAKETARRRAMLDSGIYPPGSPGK

## human TMPAP stably expressed in LNCaP cells (LNCaP pMX TMPAP) (enzyme)
  Pearson's correlation coefficient of co-localization (double immunofluorescence, cell lamellipodia only): 0.68
  Pearson's correlation coefficient of co-localization (double immunofluorescence, whole cell): 0.485
